Measured values: patent US20190040102A1 (CDRD VENTURES, published 2019)
Positions of bridges follow the written chain, without caps; N, C: chain ends. Non-standard residues stand in square brackets, D forms with d. *: point of attachment. dPhe(4-CONH2) = NC(=O)c1ccc(C[C@@H](N)C(=O)O)cc1; Phe(4-Cl) = N[C@@H](Cc1ccc(Cl)cc1)C(=O)O; Nicotinoyl = O=C(c1cccnc1)*

Columns and labels:
Test in all cases: cell-based or functional assay
[1] = target: somatostatin receptor SSTR1 (UniProt P30872 1-391)
[2] = target: somatostatin receptor type 2 (SSTR2) (UniProt P30874 1-369)
[3] = target: somatostatin receptor SSTR4 (UniProt P31391 1-388)
[4] = target: somatostatin receptor SSTR3 (UniProt P32745 1-418)
[5] = target: somatostatin receptor SSTR5 (UniProt P35346 1-364)
somatostatin receptor SSTR5, sequence (P35346 whole entry): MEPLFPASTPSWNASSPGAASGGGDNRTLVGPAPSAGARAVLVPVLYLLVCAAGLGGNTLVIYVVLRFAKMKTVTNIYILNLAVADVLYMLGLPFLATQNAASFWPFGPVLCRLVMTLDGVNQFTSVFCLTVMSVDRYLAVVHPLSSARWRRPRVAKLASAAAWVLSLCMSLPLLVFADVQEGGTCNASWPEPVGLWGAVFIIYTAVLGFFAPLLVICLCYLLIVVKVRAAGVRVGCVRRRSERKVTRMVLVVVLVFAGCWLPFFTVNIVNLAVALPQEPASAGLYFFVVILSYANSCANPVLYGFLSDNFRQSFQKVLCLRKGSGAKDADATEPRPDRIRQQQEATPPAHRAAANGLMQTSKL

somatostatin receptor type 2 (SSTR2), sequence (P30874 whole entry): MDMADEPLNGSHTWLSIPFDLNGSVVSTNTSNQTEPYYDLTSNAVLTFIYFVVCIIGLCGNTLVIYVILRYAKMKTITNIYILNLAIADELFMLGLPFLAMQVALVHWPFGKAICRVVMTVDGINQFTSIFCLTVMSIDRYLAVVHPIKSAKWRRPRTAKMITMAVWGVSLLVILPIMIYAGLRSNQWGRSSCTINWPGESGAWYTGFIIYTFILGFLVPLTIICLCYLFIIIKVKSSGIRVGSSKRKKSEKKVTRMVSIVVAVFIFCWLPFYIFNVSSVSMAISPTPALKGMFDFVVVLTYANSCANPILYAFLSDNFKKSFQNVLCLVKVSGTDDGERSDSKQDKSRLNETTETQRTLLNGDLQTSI
somatostatin receptor SSTR4, sequence (P31391 whole entry): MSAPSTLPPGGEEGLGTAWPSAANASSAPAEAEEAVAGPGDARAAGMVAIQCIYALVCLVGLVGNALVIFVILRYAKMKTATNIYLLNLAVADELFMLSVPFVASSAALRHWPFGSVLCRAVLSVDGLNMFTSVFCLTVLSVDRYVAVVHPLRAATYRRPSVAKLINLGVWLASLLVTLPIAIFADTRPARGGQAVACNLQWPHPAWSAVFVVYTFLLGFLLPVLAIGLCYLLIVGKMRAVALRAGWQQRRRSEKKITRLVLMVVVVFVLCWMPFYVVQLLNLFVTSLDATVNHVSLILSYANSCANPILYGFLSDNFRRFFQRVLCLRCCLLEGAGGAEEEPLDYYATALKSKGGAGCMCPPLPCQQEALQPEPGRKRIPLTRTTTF
somatostatin receptor SSTR1, sequence (P30872 whole entry): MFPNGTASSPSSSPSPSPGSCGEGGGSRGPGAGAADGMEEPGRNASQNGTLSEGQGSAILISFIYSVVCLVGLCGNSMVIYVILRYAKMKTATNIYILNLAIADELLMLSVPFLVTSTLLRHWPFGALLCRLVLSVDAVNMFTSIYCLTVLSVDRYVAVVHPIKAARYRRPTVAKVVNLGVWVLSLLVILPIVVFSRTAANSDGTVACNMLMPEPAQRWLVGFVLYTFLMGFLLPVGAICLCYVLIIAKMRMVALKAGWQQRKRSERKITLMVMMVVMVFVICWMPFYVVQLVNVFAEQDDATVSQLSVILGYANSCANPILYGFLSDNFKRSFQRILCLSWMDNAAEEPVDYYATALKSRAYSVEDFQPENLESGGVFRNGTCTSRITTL
somatostatin receptor SSTR3, sequence (P32745 whole entry): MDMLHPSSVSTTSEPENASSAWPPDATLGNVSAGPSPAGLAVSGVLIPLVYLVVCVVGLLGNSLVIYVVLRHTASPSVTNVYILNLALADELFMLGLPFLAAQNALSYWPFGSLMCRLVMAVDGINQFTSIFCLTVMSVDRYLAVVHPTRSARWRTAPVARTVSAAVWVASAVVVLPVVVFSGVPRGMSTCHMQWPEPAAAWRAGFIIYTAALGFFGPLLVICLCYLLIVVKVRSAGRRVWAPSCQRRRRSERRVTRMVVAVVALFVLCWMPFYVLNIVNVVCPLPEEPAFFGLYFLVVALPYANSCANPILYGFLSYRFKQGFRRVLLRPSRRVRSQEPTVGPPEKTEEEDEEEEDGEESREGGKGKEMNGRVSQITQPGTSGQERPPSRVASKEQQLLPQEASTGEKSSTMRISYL

Binder | IC50 (PathHunter β-Arrestin, antagonist mode) [1] [µM] | IC50 (PathHunter β-Arrestin, antagonist mode) [2] [µM] | IC50 (PathHunter β-Arrestin, antagonist mode) [3] [µM] | IC50 (PathHunter β-Arrestin, antagonist mode) [4] [µM] | IC50 (PathHunter β-Arrestin, antagonist mode) [5] [µM]
XXYXKTCX (HELM PEPTIDE1{[N[C@@H](Cc1ccc(Cl)cc1)C(=O)[*:2]].[dC].Y.[O=C(Nc1ccccc1)Nc1ccc(C[C@@H](N[*:1])C(=O)[*:2])cc1].K.T.C.[dY].[am]}$PEPTIDE1,PEPTIDE1,2:R3-7:R3$$$V2.0; SMILES C[C@@H](O)[C@@H]1NC(=O)[C@H](CCCCN)NC(=O)[C@@H](Cc2ccc(NC(=O)Nc3ccccc3)cc2)NC(=O)[C@H](Cc2ccc(O)cc2)NC(=O)[C@H](NC(=O)[C@@H](N)Cc2ccc(Cl)cc2)CSSC[C@@H](C(=O)N[C@H](Cc2ccc(O)cc2)C(N)=O)NC1=O) [Compound 15: H-Cpa-cyclo[D-Cys-Tyr-D-Phe(4-phenylureido)-Lys-Thr-Cys]-D-Tyr-NH2] | > 1 | 0.001 | > 1 | > 1 | > 1
H-[Phe(4-Cl)][dC]Y[dTyr(O-2-(4-morpholinyl)ethyl)]KTC[dY]-NH2 (disulfide 2-7) [Compound 13: H-Cpa-cyclo[DCys-Tyr-D-(2-(4-morpholinyl)ethyl)Tyr-Lys-Thr-Cys]-DTyr-NH2] | – | 0.334 | – | > 1 | –
H-[Phe(4-Cl)][dC]Y[dAph(Lys)]KTC[dY]-NH2 (disulfide 2-7) [Compound 17: H-Cpa-cyclo[DCys-Tyr-D-4-(Lys)Aph-Lys-Thr-Cys]-DTyr-NH2] | – | > 1 | – | > 1 | –
H-[Phe(4-Cl)][dC]Y[dAph(Asn)]KTC[dY]-NH2 (disulfide 2-7) [Compound 19: H-Cpa-cyclo[DCys-Tyr-D-4-(Asn)Aph-Lys-Thr-Cys]-DTyr-NH2] | – | > 1 | – | > 1 | –
XXYXKTCX (HELM PEPTIDE1{[N[C@@H](Cc1ccc(Cl)cc1)C(=O)[*:2]].[dC].Y.[O=C([C@@H](Cc1ccc(NS(=O)(=O)c2ccccc2)cc1)N[*:1])[*:2]].K.T.C.[dY].[am]}$PEPTIDE1,PEPTIDE1,2:R3-7:R3$$$V2.0; SMILES C[C@@H](O)[C@@H]1NC(=O)[C@H](CCCCN)NC(=O)[C@@H](Cc2ccc(NS(=O)(=O)c3ccccc3)cc2)NC(=O)[C@H](Cc2ccc(O)cc2)NC(=O)[C@H](NC(=O)[C@@H](N)Cc2ccc(Cl)cc2)CSSC[C@@H](C(=O)N[C@H](Cc2ccc(O)cc2)C(N)=O)NC1=O) [Compound 14: H-Cpa-cyclo[DCys-Tyr-D-4-(benzenesulfonyl)Aph-Lys-Thr-Cys]-DTyr-NH2] | > 1 | 0.021 | > 1 | > 1 | > 1
XXYXKTCX (HELM PEPTIDE1{[N[C@@H](Cc1ccc(Cl)cc1)C(=O)[*:2]].[dC].Y.[NC(=O)NCc1ccc(C[C@@H](N[*:1])C(=O)[*:2])cc1].K.T.C.[dY].[am]}$PEPTIDE1,PEPTIDE1,2:R3-7:R3$$$V2.0; SMILES C[C@@H](O)[C@@H]1NC(=O)[C@H](CCCCN)NC(=O)[C@@H](Cc2ccc(CNC(N)=O)cc2)NC(=O)[C@H](Cc2ccc(O)cc2)NC(=O)[C@H](NC(=O)[C@@H](N)Cc2ccc(Cl)cc2)CSSC[C@@H](C(=O)N[C@H](Cc2ccc(O)cc2)C(N)=O)NC1=O) [Compound 7: H-Cpa-cyclo[DCys-Tyr-D-(4-ureidomethyl)Phe-Lys-Thr-Cys]-DTyr-NH2] | > 1 | 0.031 | > 1 | > 1 | > 1
H-[Phe(4-Cl)][dC]Y[dAph(Glu)]KTC[dY]-NH2 (disulfide 2-7) [Compound 20: H-Cpa-cyclo[DCys-Tyr-D-4-(Glu)Aph-Lys-Thr-Cys]-DTyr-NH2] | – | 0.924 | – | > 1 | –
H-[Phe(4-Cl)][dC]Y[dK](Nicotinoyl)KTC[dY]-NH2 (disulfide 2-7; SMILES C[C@@H](O)[C@@H]1NC(=O)[C@H](CCCCN)NC(=O)[C@@H](CCCCNC(=O)c2cccnc2)NC(=O)[C@H](Cc2ccc(O)cc2)NC(=O)[C@H](NC(=O)[C@@H](N)Cc2ccc(Cl)cc2)CSSC[C@@H](C(=O)N[C@H](Cc2ccc(O)cc2)C(N)=O)NC1=O) [Compound 3: H-Cpa-cyclo[DCys-Tyr-D-(Nε-nicotinoyl)Lys-Lys-Thr-Cys]-DTyr-NH2] | – | 0.251 | – | > 1 | –
XXYXKTCX (HELM PEPTIDE1{[N[C@@H](Cc1ccc(Cl)cc1)C(=O)[*:2]].[dC].Y.[NC(=O)NCCC[C@@H](N[*:1])C(=O)[*:2]].K.T.C.[dY].[am]}$PEPTIDE1,PEPTIDE1,2:R3-7:R3$$$V2.0; SMILES C[C@@H](O)[C@@H]1NC(=O)[C@H](CCCCN)NC(=O)[C@@H](CCCNC(N)=O)NC(=O)[C@H](Cc2ccc(O)cc2)NC(=O)[C@H](NC(=O)[C@@H](N)Cc2ccc(Cl)cc2)CSSC[C@@H](C(=O)N[C@H](Cc2ccc(O)cc2)C(N)=O)NC1=O) [Compound 1: H-Cpa-cyclo[D-Cys-Tyr-D-Cit-Lys-Thr-Cys]-D-Tyr-NH2] | > 1 | 0.034 | > 1 | > 1 | > 1
H-[Phe(4-Cl)][dC]Y[dHoCit]KTC[dY]-NH2 (disulfide 2-7) [Compound 2: H-Cpa-cyclo[DCys-Tyr-DHoCit-Lys-Thr-Cys]-DTyr-NH2] | – | 0.181 | – | > 1 | –
XXYXKTCX (HELM PEPTIDE1{[N[C@@H](Cc1ccc(Cl)cc1)C(=O)[*:2]].[dC].Y.[CCCCCNc1ccc(C[C@@H](N[*:1])C(=O)[*:2])cc1].K.T.C.[dY].[am]}$PEPTIDE1,PEPTIDE1,2:R3-7:R3$$$V2.0; SMILES CCCCCNc1ccc(C[C@H]2NC(=O)[C@H](Cc3ccc(O)cc3)NC(=O)[C@H](NC(=O)[C@@H](N)Cc3ccc(Cl)cc3)CSSC[C@@H](C(=O)N[C@H](Cc3ccc(O)cc3)C(N)=O)NC(=O)[C@H]([C@@H](C)O)NC(=O)[C@H](CCCCN)NC2=O)cc1) [Compound 12: H-Cpa-cyclo[D-Cys-Tyr-D-Phe(4-n-pentylamino)-Lys-Thr-Cys]-D-Tyr-NH2] | > 1 | 0.017 | > 1 | > 1 | > 1
H-[Phe(4-Cl)][dC]Y[dAph(Cit)]KTC[dY]-NH2 (disulfide 2-7) [Compound 22: H-Cpa-cyclo[DCys-Tyr-D-4-(Cit)Aph-Lys-Thr-Cys]-DTyr-NH2] | – | 0.417 | – | > 1 | –
H-[Phe(4-Cl)][dC]Y[dAph(Ser)]KTC[dY]-NH2 (disulfide 2-7) [Compound 16: H-Cpa-cyclo[DCys-Tyr-D-4-(Ser)Aph-Lys-Thr-Cys]-DTyr-NH2] | – | 0.234 | – | > 1 | –
H-[Phe(4-Cl)][dC]Y[dAph(Val)]KTC[dY]-NH2 (disulfide 2-7) [Compound 23: H-Cpa-cyclo[DCys-Tyr-D-4-(Val)Aph-Lys-Thr-Cys]-DTyr-NH2] | – | 0.458 | – | > 1 | –
H-[Phe(4-Cl)][dC]Y[dAph(Gln)]KTC[dY]-NH2 (disulfide 2-7) [Compound 21: H-Cpa-cyclo[DCys-Tyr-D-4-(Gln)Aph-Lys-Thr-Cys]-DTyr-NH2] | – | > 1 | – | > 1 | –
H-[Phe(4-Cl)][dC]Y[dAph(Asp)]KTC[dY]-NH2 (disulfide 2-7) [Compound 18: H-Cpa-cyclo[DCys-Tyr-D-4-(Asp)Aph-Lys-Thr-Cys]-DTyr-NH2] | – | > 1 | – | > 1 | –
H-[Phe(4-Cl)][dC]Y[dPhe(4-CONH2)]K(Me)TC[dY]-NH2 (disulfide 2-7; SMILES CNCCCC[C@@H]1NC(=O)[C@@H](Cc2ccc(C(N)=O)cc2)NC(=O)[C@H](Cc2ccc(O)cc2)NC(=O)[C@H](NC(=O)[C@@H](N)Cc2ccc(Cl)cc2)CSSC[C@@H](C(=O)N[C@H](Cc2ccc(O)cc2)C(N)=O)NC(=O)[C@H]([C@@H](C)O)NC1=O) [Compound 24: H-Cpa-cyclo[D-Cys-Tyr-D-Phe(4-carbamoyl)-Lys(Nε-Me)-Thr-Cys]-D-Tyr-NH2] | > 1 | 0.00096 | > 1 | > 1 | > 1
XXYXKTCX (HELM PEPTIDE1{[N[C@@H](Cc1ccc(Cl)cc1)C(=O)[*:2]].[dC].Y.[NC(=O)c1ccc(C[C@@H](N[*:1])C(=O)[*:2])cc1].K.T.C.[dY].[am]}$PEPTIDE1,PEPTIDE1,2:R3-7:R3$$$V2.0; SMILES C[C@@H](O)[C@@H]1NC(=O)[C@H](CCCCN)NC(=O)[C@@H](Cc2ccc(C(N)=O)cc2)NC(=O)[C@H](Cc2ccc(O)cc2)NC(=O)[C@H](NC(=O)[C@@H](N)Cc2ccc(Cl)cc2)CSSC[C@@H](C(=O)N[C@H](Cc2ccc(O)cc2)C(N)=O)NC1=O) [Compound 4: H-Cpa-cyclo[DCys-Tyr-D-(4-carbamoyl)Phe-Lys-Thr-Cys]-DTyr-NH2] | > 1 | 0.017 | > 1 | > 1 | > 1
